The source of these data is PMC4017629 (Journal of molecular biology, 2014).

Series [1] deals with T1, N-terminal DNA-binding domain of AbrB (AbrBN), residues 1-53 (B. subtilis).
T1 sequence (P08874 whole entry, looked up): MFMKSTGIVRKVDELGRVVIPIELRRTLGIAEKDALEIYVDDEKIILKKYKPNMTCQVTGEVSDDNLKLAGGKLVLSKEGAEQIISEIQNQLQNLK
Description: SEC. (Size exclusion chromatography separates by hydrodynamic size, large species first.)

The target is the same in series [2]. In words: AUC.
In series [3] the target is C-terminal multimerization domain of AbrB (AbrBC), residues 54-94 (B. subtilis). In words: SEC.
Series [4] deals with T2, Full-length AbrB from B. subtilis (B. subtilis, UniProt P08874 1-96).
T2 sequence (looked up): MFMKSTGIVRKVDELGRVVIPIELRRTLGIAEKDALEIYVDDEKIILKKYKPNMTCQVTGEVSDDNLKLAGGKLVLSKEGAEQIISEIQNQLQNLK
In words: ITC. (In general: ITC needs no label: the signal is the heat of the interaction.)

The series “SEC” concerns the molecule itself. Description: SEC.

Several values for one entry are separate records, joined by “and”; a condition that tells them apart may be missing. Equal entries are not always repeated.

In the case of “N-terminal DNA-binding domain of AbrB (AbrBN), residues 1-53 (domain or fragment)”, the stoichiometry N in series [1] and in series [2] was 2 each time.

As for “C-terminal multimerization domain of AbrB (AbrBC), residues 54-94 (domain or fragment)”, in series [3], the stoichiometry N – broadly, the number of molecules, sites or subunits per partner or assembly – was found to be 2.

B1: AbbA (anti-repressor protein AbbA from B. subtilis), histidine tag removed (natural protein, UniProt O31697 1-65, looked up)
chain: MRMSLIGERFTEEEQKLLLNILINHEYAIELLSSEINDIETGTKNVDGTTYKKLVTLYDRFRFEN
Regarding B1, in series [4], the dissociation constant Kd (in general, the concentration at which binding is half-saturated) was 16 nM and 11 to 21 nM; the “stoichiometry N” value was 0.868 to 0.969 (2×) and 0.918. Further, the “stoichiometry N” value in “SEC” was determined as 2. This molecule registered a stoichiometry N (AbbA chains per AbrBN chain (2:2)) in series [2] of 1.
